Positions count from the first letter of the chain named. In names and notes the source's numbering stands. Entries after “also recorded” stand apart in the source; their conditions may differ.
B1: SEQ ID NO:41: amidohydrolase 2, Polaromonas sp. JS666 (protein, listed as Polaromonas sp.)
chain: MANGKIALEEHFATEETLMDSAGFVPDKDWPELRSRLLDIQDRRVRLMDEHGIETMILSLNAPAVQAIADSTRANETARRANDFLAEQVAKQPTRFRGFAALPMQDPELAARELERCVKELGFVGALVNGFSQDNRSAVPLYYDMAQYWPFWETVQALDVPFYLHPRNPLPSDARIYDGHAWLLGPTWAFGQETAVHALRLMGSGLFDKYPALKIILGHMGEGLPYSMWRIDHRNAWIKTTPKYPAKRKIVDYFNENFYLTTSGNFRTQTLIDAILEIGADRILFSTDWPFENIDHAADWFENTSISEADRKKIGWGNAQNLFKLNR
B2: SEQ ID NO:115: Design variant of SEQ ID NO: 1 (protein)
chain: MAQGKVALEEHFAIPDTLTTYTTSGDYEKELKHRLLDIQDTRLKLMDAHGIETMILSLNAPGVQAIPDRRKAIEIARRANDVLAEECAKRPDRFLAFAALPLQDPDAATEELQRCVNDLGFVGALVNGFSQEGDGQTPLYYDLPQYRPFWGEVEKLDVPFYLHPRNPLPQDSRIYDGHPWLLGPTWAFAQETAVHALRLMASGLFDEHPRLNIILGHMGEGLPYMMWRIDHRNAWVKTPPRYPAKRRFMDYFNENFHITTSGNFRTQTLIDAILEIGADRILFSTDWPFENIDHASDWFNATSIAEADRVKIGRTNARRLFKLDGA
modifications: Dicamba decarboxylase variant clone DC.4.161
B3: SEQ ID NO:116: Design variant of SEQ ID NO: 41; new 35 amino acid N-terminal loop (protein)
chain: MAQGKVALEEHFAIPETLQDAAGFVPGDYWKELQHRLLDIQDRRVRLMDEHGIETMILSLNAPAVQAIADSTRANETARRANDFLAEQVAKQPTRFRGFAALPMQDPELAARELERCVKELGFVGALVNGFSQDNRSAVPLYYDMAQYWPFWETVQALDVPFYLHPRNPLPSDARIYDGHAWLLGPTWAFGQETAVHALRLMGSGLFDKYPALKIILGHMGEGLPYSMWRIDHRNAWIKTTPKYPAKRKIVDYFNENFYLTTSGNFRTQTLIDAILEIGADRILFSTDWPFENIDHAADWFENTSISEADRKKIGWGNAQNLFKLNR
modifications: Dicamba decarboxylase variant clone DC.30.007
notes: new 35 amino acid N-terminal loop
B4: SEQ ID NO:109: Design variant of SEQ ID NO: 1; designed mutation N235V (protein)
chain: MAQGKVALEEHFAIPETLQDSAGFVPGDYWKELQHRLLDIQDTRLKLMDAHGIETMILSLNAPAVQAIPDRRKAIEIARRANDVLAEECAKRPDRFLAFAALPLQDPDAATEELQRCVNDLGFVGALVNGFSQEGDGQTPLYYDLPQYRPFWGEVEKLDVPFYLHPRNPLPQDSRIYDGHPWLLGPTWAFAQETAVHALRLMASGLFDEHPRLNIILGHMGEGLPYMMWRIDHRVAWVKLPPRYPAKRRFMDYFNENFHITTSGNFRTQTLIDAILEIGADRILFSTDWPFENIDHASDWFNATSIAEADRVKIGRTNARRLFKLDGA
modifications: Dicamba decarboxylase variant clone DC.4.032
notes: designed mutation N235V
B5: SEQ ID NO:110: Design variant of SEQ ID NO: 1 (protein)
chain: B4 chain with A22M, Q34M, V235M
modifications: Dicamba decarboxylase variant clone DC.4.111
B6: SEQ ID NO:111: Design variant of SEQ ID NO: 1 (protein)
chain: B4 chain with A22M, Q34M, V235M, V238I
modifications: Dicamba decarboxylase variant clone DC.4.112
B7: SEQ ID NO:112: Design variant of SEQ ID NO: 1 (protein)
chain: B4 chain with Q34V
modifications: Dicamba decarboxylase variant clone DC.4.113
B8: SEQ ID NO:113: Design variant of SEQ ID NO: 1 (protein)
chain: B4 chain with W30L, Q34F
modifications: Dicamba decarboxylase variant clone DC.4.114
B9: N61G: point mutation N61G of SEQ ID NO:109 (protein)
chain: B4 chain with N61G
modifications: Dicamba decarboxylase variant clone DC.4.032
B10: N61S: point mutation N61S of SEQ ID NO:109 (protein)
chain: B4 chain with N61S
modifications: Dicamba decarboxylase variant clone DC.4.032
B11: P63V: point mutation P63V of SEQ ID NO:109 (protein)
chain: B4 chain with P63V
modifications: Dicamba decarboxylase variant clone DC.4.032
B12: A64G: point mutation A64G of SEQ ID NO:109 (protein)
chain: B4 chain with A64G
modifications: Dicamba decarboxylase variant clone DC.4.032
B13: A64S: point mutation A64S of SEQ ID NO:109 (protein)
chain: B4 chain with A64S
modifications: Dicamba decarboxylase variant clone DC.4.032

Assay: Detection of 4-chloro-3-methoxy phenol product by LC-MS/MS
Assay type: biochemical
Settings: purified protein
Protocol: The decarboxylated and chloro hydrolyzed product, 4-chloro-3-methoxy phenol (FIG. 1D), is measured using a LC-MS/MS analytical procedure. […] 10 ul is removed from the reaction mixture and mixed with 90 ul pre-chilled methanol followed by centrifugation at 14,000 rpm for 15 min at 4° C. 10 ul of the supernatant is then transferred into 170 ul ddH2O to achieve 5% methanol solution for injection. 50 ul of the prepared sample is injected into a 4000 Q Trap LC-MS/MS system for sample analysis. LC-MS/MS parameters are: Mobile Phase A, 2 mM ammonium acetate in water; Mobile Phase B, 2 mM ammonium acetate in methanol; Column, Aquasil, 100×2.1 mm, 3 μm, C18 column; Flow Rate, 0.6 ml/min. The MS/MS fragment 157/142 which is common to 4-chloro-3-methoxy phenol, 2-chloro-5-methoxy phenol, and 3-chloro-5-methoxy phenol is monitored at a retention time of 2.88 min.

Row | Molecule | 4-chloro-3-methoxy phenol product
1 | B1 | detected
2 | B2 | detected
3 | B3 | detected
4 | B4 | detected
5 | B5 | detected
6 | B6 | detected
7 | B7 | detected
8 | B8 | detected

Assay: Saturation mutagenesis of SEQ ID NO:109, dicamba decarboxylation activity of point mutants
Settings: dicamba decarboxylation activity of point mutants of SEQ ID NO: 109 (NNK saturation mutagenesis), relative to the unchanged template

Row | Molecule | Average Activity (Fold of SEQ ID NO: 109)
9 | B9 | 2.3 Fold of SEQ ID NO: 109
10 | B10 | 2.5 Fold of SEQ ID NO: 109
11 | B11 | 1.8 Fold of SEQ ID NO: 109
12 | B12 | 2.6 Fold of SEQ ID NO: 109
13 | B13 | 2.1 Fold of SEQ ID NO: 109

Same assay, conditions: dicamba decarboxylation activity of single point mutants of SEQ ID NO:109, relative to unchanged template

Row | Molecule | Average Activity (Fold of SEQ ID NO: 109)
14 | B10 | 2.5 Fold of SEQ ID NO: 109
15 | B12 | 2.6 Fold of SEQ ID NO: 109

Assay: 14C assay with purified protein (14CO2 captured on Ca(OH)2 filter paper)
Assay type: biochemical
Settings: [14C]-carboxyl-labeled dicamba

Row | Molecule | CO2 product
16 | B1 | detected
17 | B2 | detected
18 | B3 | detected
19 | B4 | detected
20 | B5 | detected
21 | B6 | detected
22 | B7 | detected
23 | B8 | detected

Assay: 14C assay with IPTG-induced recombinant E. coli cells (14CO2 capture from [14C]-carboxyl-labeled dicamba)
Settings: E. coli cell assay, 108 sequences tested

Row | Molecule | decarboxylation activity of dicamba
24 | B1 | showed decarboxylation activity of dicamba

Assay: Dicamba decarboxylation activity of computationally designed protein variants
Settings: native protein or designed variant versus parent

Row | Molecule | Dicamba Decarboxylase Activity
25 | B1 | native dicamba decarboxylase activity
26 | B2 | displays an increase in dicamba decarboxylase activity
27 | B3 | displays an increase in dicamba decarboxylase activity
28 | B4 | more active than their parent sequence; also recorded: displays an increase in dicamba decarboxylase activity
29 | B5 | displays an increase in dicamba decarboxylase activity
30 | B6 | displays an increase in dicamba decarboxylase activity
31 | B7 | displays an increase in dicamba decarboxylase activity
32 | B8 | displays an increase in dicamba decarboxylase activity

Assay: Detection of 2,5-DCP product by GC/MS
Assay type: biochemical
Settings: purified protein
Protocol: The decarboxylated and demethylated product of dicamba, 2,5-dichloro phenol or 2,5-DCP (FIG. 1E) is measured using a GC/MS analytical procedure with either liquid injection after liquid/liquid extraction using toluene as the extraction solvent or gas injection using head space method. The head space sample analysis is carried out on an Agilent GC/MS system with a 6890A GC, a 5973N MSD and a CTC CombiPAL auto-sampler or with a 7890A GC, a 5975C MSD and an Agilent GC Sampler 80 auto-sampler with Phenomenex ZB-MultiResidue-1 column (30 m length, 0.25 mm diameter, 0.25 um film) or equivalent. GC/MS parameters are: GC inlet temperature, 200° C.; Carry gas, helium in constant flow mode (1.2 mL/min); Oven temperature program, 70° C. for 1 min and then ramp to 275° C. at 40° C./min. […] The reaction vial is transferred to a agitator for incubation at 90° C. for 4 min at 500 rpm. With a syringe preheated at 110° C., 1000 uL of head space is injected with sample fill speed at 100 uL/sec. A 2-mm diameter liner is used in sample inlet. The MS data acquisition is done in SIM (selected ion monitoring) mode. The positive ion at M/Z 162 for the molecular ion of 2,-5-DCP is monitored at retention time of 4.06 min. Solvent delay for MS acquisition is set at 3 min. GC/MS parameters for liquid sample analysis are the same as those for head space analysis, except that the volume of liquid injection is 1 uL.

Row | Molecule | 2,5-DCP product
33 | B1 | detected
34 | B2 | detected
35 | B3 | detected
36 | B4 | detected
37 | B5 | detected
38 | B6 | detected
39 | B7 | detected
40 | B8 | detected

— US20140287419A1, “Compositions Having Dicamba Decarboxylase Activity and Methods of Use” (priority 2013, published 2014)
